Measured values taken from PMC5818509, “Crystal structure of the hydroxylaminopurine resistance protein, YiiM, and its putative molybdenum cofactor-binding catalytic site” (Scientific Reports, 2018).

Target: the molecule itself
Assay: SEC; gel filtration, Superdex 200 10/300, room temperature, 20 mM Tris pH 8.0, 150 mM NaCl, 5 mM β-mercaptoethanol; BL21-expressed and TP1000-expressed proteins

B1: Escherichia coli YiiM (natural protein)
chain: MRYPVDVYTGKIQAYPEGKPSAIAKIQVDGELMLTELGLEGDEQAEKKVHGGPDRALCHYPREHYLYWAREFPEQAELFVAPAFGENLSTDGLTESNVYMGDIFRWGEALIQVSQPRSPCYKLNYHFDISDIAQLMQNTGKVGWLYSVIAPGKVSADAPLELVSRVSDVTVQEAAAIAWHMPFDDDQYHRLLSAAGLSKSWTRTMQKRRLSGKIEDFSRRLWGK
notes: YiiM, a MOSC family protein of Escherichia coli; gene amplified by PCR from E. coli genomic DNA; calculated molecular weight 25.9 kDa; The BL21- and the TP1000-expressed protein are written as one molecule (both behaved alike); the crystal was grown from the TP1000-expressed protein; also called ecYiiM; ecYiiM^Pi (phosphate complex in the crystal); source: E. coli BL21 (DE3) (pET49b) and E. coli …
stoichiometry N: 2
